Data published in PMC8197658.

T1: SALL4 ZFC4 (UniProt Q9UJQ4 864-929)
T1 sequence: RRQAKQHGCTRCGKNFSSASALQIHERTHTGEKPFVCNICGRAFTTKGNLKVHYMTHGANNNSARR

B1: ITC Mutant oligo 1 (dsDNA)
DNA 1: GAGTCGCTAATG
DNA 2: CATTAGCGACTC
B2: KDM3A EMSA Mutant oligo (dsDNA)
DNA 1: TCTTCTTTTAACCTTCAAAA
DNA 2: TTTTGAAGGTTAAAAGAAGA
B3: ITC Mutant oligo 2 (dsDNA)
DNA 1: GATAAACGCTTG
DNA 2: CAAGCGTTTATC
B4: KDM3A EMSA WT oligo (dsDNA)
DNA 1: TCTTCATTTATCCTTCAAAA
DNA 2: TTTTGAAGGATAAATGAAGA

Experiments:
SALL4 ZFC4 = molecular target: T1, SALL4 ZFC4; assay: ITC
SALL4A (full-length) = SALL4A (full-length) (Homo sapiens, UniProt Q9UJQ4 1-1053); assay: EMSA
SALL4A (full-length), sequence (Q9UJQ4 whole entry): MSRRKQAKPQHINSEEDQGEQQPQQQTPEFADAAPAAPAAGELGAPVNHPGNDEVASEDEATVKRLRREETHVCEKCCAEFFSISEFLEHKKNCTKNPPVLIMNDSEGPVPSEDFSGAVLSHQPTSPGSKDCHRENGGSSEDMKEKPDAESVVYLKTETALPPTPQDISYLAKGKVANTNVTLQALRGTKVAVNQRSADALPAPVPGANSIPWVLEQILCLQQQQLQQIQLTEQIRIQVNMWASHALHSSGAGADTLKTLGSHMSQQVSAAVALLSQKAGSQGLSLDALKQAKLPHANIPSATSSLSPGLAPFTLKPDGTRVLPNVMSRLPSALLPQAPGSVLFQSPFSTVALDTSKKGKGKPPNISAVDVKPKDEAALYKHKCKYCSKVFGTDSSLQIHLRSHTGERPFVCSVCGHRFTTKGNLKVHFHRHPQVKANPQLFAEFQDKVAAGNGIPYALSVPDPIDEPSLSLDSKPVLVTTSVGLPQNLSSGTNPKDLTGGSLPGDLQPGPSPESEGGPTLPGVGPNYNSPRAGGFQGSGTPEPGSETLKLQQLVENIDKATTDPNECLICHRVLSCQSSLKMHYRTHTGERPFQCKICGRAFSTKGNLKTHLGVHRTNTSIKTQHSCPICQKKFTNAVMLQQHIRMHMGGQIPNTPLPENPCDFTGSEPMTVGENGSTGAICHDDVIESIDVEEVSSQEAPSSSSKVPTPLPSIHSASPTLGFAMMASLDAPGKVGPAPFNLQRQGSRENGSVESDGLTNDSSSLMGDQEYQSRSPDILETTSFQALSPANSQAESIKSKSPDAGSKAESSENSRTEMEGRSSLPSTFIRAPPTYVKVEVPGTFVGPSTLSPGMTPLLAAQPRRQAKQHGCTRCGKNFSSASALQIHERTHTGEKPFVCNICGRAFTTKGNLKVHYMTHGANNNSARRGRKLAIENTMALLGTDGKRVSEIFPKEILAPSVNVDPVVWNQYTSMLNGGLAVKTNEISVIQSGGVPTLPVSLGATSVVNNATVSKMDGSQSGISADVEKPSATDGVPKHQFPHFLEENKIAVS

| Binder | binding result (SALL4 ZFC4) | binding result (SALL4A (full-length)) |
| --- | --- | --- |
| B1 | no binding |  |
| B2 |  | no binding |
| B3 | no binding |  |
| B4 |  | binds |
